T1: CD22 Protein (His Tag), Sino Biological Cat. No. 11958-H08H (UniProt P20273 20-687)
T1 construct: soluble analyte, 50 nM in BLI; also called Sino Biological antigen
T1 sequence (looked up): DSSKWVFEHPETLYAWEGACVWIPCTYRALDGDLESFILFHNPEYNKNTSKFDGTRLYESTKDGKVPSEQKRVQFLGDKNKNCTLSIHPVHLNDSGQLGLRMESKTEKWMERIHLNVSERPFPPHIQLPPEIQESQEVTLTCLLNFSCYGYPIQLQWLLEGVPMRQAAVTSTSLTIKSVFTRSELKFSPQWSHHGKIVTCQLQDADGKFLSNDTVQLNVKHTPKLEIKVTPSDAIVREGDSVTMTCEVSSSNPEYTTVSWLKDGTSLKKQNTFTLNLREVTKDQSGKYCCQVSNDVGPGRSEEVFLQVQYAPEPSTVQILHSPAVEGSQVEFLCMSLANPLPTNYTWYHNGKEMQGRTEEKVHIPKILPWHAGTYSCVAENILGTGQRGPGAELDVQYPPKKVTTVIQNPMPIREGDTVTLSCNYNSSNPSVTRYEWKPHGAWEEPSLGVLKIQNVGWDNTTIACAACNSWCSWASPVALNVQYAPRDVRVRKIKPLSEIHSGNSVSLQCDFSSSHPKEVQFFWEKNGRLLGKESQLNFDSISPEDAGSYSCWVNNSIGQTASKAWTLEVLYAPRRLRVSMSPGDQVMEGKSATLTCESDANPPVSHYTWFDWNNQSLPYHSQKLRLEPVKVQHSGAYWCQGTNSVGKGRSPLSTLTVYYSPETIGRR


Biological target: T1, CD22 Protein (His Tag), Sino Biological …
Test: BLI, IgG on anti-human Fc sensor

binding result	Binder
no binding (tested: 50 nM)	MYT1526 (antibody, V domains shown, ADCT-602 VH D100H; tie by order) VH: QVQLVQSGAEVKKPGSSVKVSCKASGYTFTSYWLHWVRQAPGQGLEWIGYINPRNDYTEYNQNFKDKATITADESTNTAYMELSSLRSEDTAFYFCARRHITTFYWGQGTTVTVSS VL: DIQLTQSPSSLSASVGDRVTMSCKSSQSVLYSANHKNYLAWYQQKPGKAPKLLIYWASTRESGVPSRFSGSGSGTDFTFTISSLQPEDIATYYCHQYLSSWTFGGGTKVQIK
no binding (tested: 50 nM)	MYT4626 (antibody, V domains shown, 12C5 VH N35H; tie by order) VH: QVQLVQSGSELKKPGASVKVSCKASGYTFTSYAMHWVRQAPGQGLEWMGWINTNTGNPTYAQGFTGRFVFSLDTSVSTAYLQISSLKAEDTAVYYCARLFYYYFGMDVWGQGTTVTVSS VL: QSALTQPASVSGSPGQSITISCTGTSSDVGSYNLVSWYQLHPGKAPKLMIYEVSKRPSGVSNRFSGSRSGNTASLTISGLQAEDEADYYCCSYANSSTLVFGGGTKLTVL
no binding (tested: 50 nM)	MYT4649 (antibody, V domains shown, 12C5 VH F104H; tie by order) VH: QVQLVQSGSELKKPGASVKVSCKASGYTFTSYAMNWVRQAPGQGLEWMGWINTNTGNPTYAQGFTGRFVFSLDTSVSTAYLQISSLKAEDTAVYYCARLFYYYHGMDVWGQGTTVTVSS VL: QSALTQPASVSGSPGQSITISCTGTSSDVGSYNLVSWYQLHPGKAPKLMIYEVSKRPSGVSNRFSGSRSGNTASLTISGLQAEDEADYYCCSYANSSTLVFGGGTKLTVL
no binding (tested: 50 nM)	MYT4650 (antibody, V domains shown, 12C5 VH G105H; tie by order) VH: QVQLVQSGSELKKPGASVKVSCKASGYTFTSYAMNWVRQAPGQGLEWMGWINTNTGNPTYAQGFTGRFVFSLDTSVSTAYLQISSLKAEDTAVYYCARLFYYYFHMDVWGQGTTVTVSS VL: QSALTQPASVSGSPGQSITISCTGTSSDVGSYNLVSWYQLHPGKAPKLMIYEVSKRPSGVSNRFSGSRSGNTASLTISGLQAEDEADYYCCSYANSSTLVFGGGTKLTVL

The remaining lines, values behind:

Binder	binding result
MYT1525 (antibody, V domains shown, ADCT-602 VH R99H; tie by order) VH: QVQLVQSGAEVKKPGSSVKVSCKASGYTFTSYWLHWVRQAPGQGLEWIGYINPRNDYTEYNQNFKDKATITADESTNTAYMELSSLRSEDTAFYFCARHDITTFYWGQGTTVTVSS VL: DIQLTQSPSSLSASVGDRVTMSCKSSQSVLYSANHKNYLAWYQQKPGKAPKLLIYWASTRESGVPSRFSGSGSGTDFTFTISSLQPEDIATYYCHQYLSSWTFGGGTKVQIK	no binding (tested: 50 nM)
MYT1527 (antibody, V domains shown, ADCT-602 VH I101H; tie by order) VH: QVQLVQSGAEVKKPGSSVKVSCKASGYTFTSYWLHWVRQAPGQGLEWIGYINPRNDYTEYNQNFKDKATITADESTNTAYMELSSLRSEDTAFYFCARRDHTTFYWGQGTTVTVSS VL: DIQLTQSPSSLSASVGDRVTMSCKSSQSVLYSANHKNYLAWYQQKPGKAPKLLIYWASTRESGVPSRFSGSGSGTDFTFTISSLQPEDIATYYCHQYLSSWTFGGGTKVQIK	no binding (tested: 50 nM)
MYT1529 (antibody, V domains shown, ADCT-602 VH T103H; tie by order) VH: QVQLVQSGAEVKKPGSSVKVSCKASGYTFTSYWLHWVRQAPGQGLEWIGYINPRNDYTEYNQNFKDKATITADESTNTAYMELSSLRSEDTAFYFCARRDITHFYWGQGTTVTVSS VL: DIQLTQSPSSLSASVGDRVTMSCKSSQSVLYSANHKNYLAWYQQKPGKAPKLLIYWASTRESGVPSRFSGSGSGTDFTFTISSLQPEDIATYYCHQYLSSWTFGGGTKVQIK	no binding (tested: 50 nM)
MYT4624 (antibody, V domains shown, 12C5 VH A33H; tie by order) VH: QVQLVQSGSELKKPGASVKVSCKASGYTFTSYHMNWVRQAPGQGLEWMGWINTNTGNPTYAQGFTGRFVFSLDTSVSTAYLQISSLKAEDTAVYYCARLFYYYFGMDVWGQGTTVTVSS VL: QSALTQPASVSGSPGQSITISCTGTSSDVGSYNLVSWYQLHPGKAPKLMIYEVSKRPSGVSNRFSGSRSGNTASLTISGLQAEDEADYYCCSYANSSTLVFGGGTKLTVL	no binding (tested: 50 nM)

Source: patent publication US20220288219A1 (MYTHIC THERAPEUTICS, published 2022)
